In the supplement of paper PMC10567573:
± gives the standard deviation.

Assay: protein stability index of a GFP-peptide fusion (GPS, HEK-293T) (PSI 1-6); higher = more stable
Details: c terminus: a fixed tail appended
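Note: 24-mer peptide tiles fused after GFP, lentivirally expressed, FACS-sorted into six equal bins by GFP/DsRed ratio, decoded by Illumina sequencing, PSI is the read-weighted mean bin number.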

Sequence	protein stability index (treatment: DMSO)	protein stability index (treatment: MLN4924 1 uM, 8 h)
DCEVFRQRFRQFQYREAAGPHEAF [ZNF449]	2.94 ± 0.29	2.93 ± 0.28
DCMAALGLAYDRKKVSKAAILARI [SCD]	1.94 ± 0.3	2.29 ± 0.2
DDKLFQKLAKVYSYAHGWMFQGWN [CPN1]	2.45 ± 0.51	2.25 ± 0.45
DDLVPKGKKFLLLSINRYERKKNL [ALG2]	2.58 ± 0.092	2.67 ± 0.29
DDSCQDQPGTNCALAIKVNLCGHW [ADAMTSL2]	2.57 ± 0.1	2.65 ± 0.46
DEDDSTSRFSSSTEQSSASRLMRR [DVL3]	5.28 ± 0.25	5.36 ± 0.26
DEKAKPRDRQQAPGLGQESKAPGS [TLE6]	5.49 ± 0.21	5.49 ± 0.21
DEPQETAYRTQVSSCCLHICQGIR [PKD2L1]	2.8 ± 0.61	3.1 ± 0.46
DFWLNMAALTEALQRQAEQNPTAS [FCHO1]	2.51 ± 0.21	2.47 ± 0.35
DGGEPQSVQVDGQARTQKLQGLIP [TNXB]		5.22 ± 0.99
DHPGTPPHKTFRKLRLFDTPHTPK [WEE1]	3.88 ± 0.11	3.98 ± 0.15
DISIHHFTCDEENVFAAVGRGLYV [WDR41]	2.7 ± 0.35	2.61 ± 0.43
DISLGQKEDGEPSWREAKVSWFGS [PWWP2B]	3.15 ± 0.14	3.39 ± 0.14
DKCSAPKIWRTPNGKTIEMDTQFT [IQUB]	3.53 ± 0.28	3.6 ± 0.21
DKENIYILLEYCSRRSMAHILKAR [PLK2]	2.2 ± 0.29	2.55 ± 0.43
DKFVATMYHYLQFAYYKLNDVRQA [P3H4]	2.75 ± 0.39	2.77 ± 0.47
DLEEERREEEEKTPPETKPDPPVN [PCMTD2]	5.64 ± 0.37	5.48 ± 0.48
DLMVEATPRRVFANAHTYHINSIS [PPP2R2B]	2.58 ± 0.23	2.49 ± 0.3

Sequence	protein stability index (treatment: DMSO)	protein stability index (treatment: MLN4924 1 uM, 8 h)
DMRRDEEGSLCAAHLPKAQLSGYA [FBF1]	4.12 ± 0.25	4.15 ± 0.25
DPESERALQAPHSPSKTDGKELAG [PBXIP1]	5.48 ± 0.28	5.75 ± 0.25
DQDGDQAPEYRGRTELLKDAIGEG [MOG]	5.33 ± 0.34	5.43 ± 0.21
DREQVSSYNITVTATDGGSPPLST [PCDHGA10]	4.54 ± 0.24	4.74 ± 0.14
DRGTRVVFIDFSVYNANINLFCVL [PKD2L1]	3.11 ± 0.08	2.95 ± 0.31
DRSRTVSASSTGDLPKAKTRAADL [SRPK2]	4.94 ± 0.11	4.68 ± 0.24
DSDSEKQQQIHHIKNLYAFNLFCQ [VPS39]	2.58 ± 0.29	2.71 ± 0.35
DSHILLCLMGLAETPGCATLLPAS [DCAF4]	2.67 ± 0.45	2.58 ± 0.55
DTEVITVEKSSPATSLFVELDEEE [BCL2L13]	5.39 ± 0.065	5.54 ± 0.25
DTFAAYTREQLYQAIFHAVDQYLA [MCOLN1]	2.66 ± 0.44	2.42 ± 0.44
DTGLFSRSKSGSEEVLCDSCIGNK [TRIM29]	4.61 ± 0.1	4.92 ± 0.23
DTWTLTEEHGLQQERPRPEPGRLG [PXN]	4.93 ± 0.34	4.92 ± 0.19
DVKRLGKQNARFLTSMRRLSSIKR [STX11]	2.9 ± 0.35	2.98 ± 0.42
DYVMTTLLFSDKNVNSNLITWNRV [TRIP13]	2.4 ± 0.75	2.36 ± 0.62
EADPEMIKRAEDYGPVEVISHWHP [CLPTM1]	4.42 ± 0.24	4.26 ± 0.38
EAEKDGVKVPTTLAEYCIKTKVPS [UBE2R2]	5.08 ± 0.19	5.15 ± 0.2
EAMAEKNRRDVEAWFFSKTEELNK [KRT15]	4.15 ± 0.23	4.21 ± 0.25
ECVWNGSDSVIMTGSYNNFFRMFD [PPP2R2B]	2.23 ± 0.34	2.27 ± 0.39
